Results from patent publication US20100136573A1, “DIAGNOSING NEURODEGENERATIVE DISEASES” (priority 2007, published 2010).

Experiments:
[1] = target: T1, Recombinant human GST-TDP43 (Homo sapiens, UniProt Q13148); assay: In vitro caspase-3 assay; type: biochemical; details: 2 units, 2 and 4 hours, Coomassie staining
T1 construct: Full-length or caspase-3-treated recombinant GST-TDP43 (0.5 μg) was separated by 10% SDS-PAGE
Protocol: Recombinant human GST-TDP43 (2 μg) was incubated with active human recombinant caspase-3 (2 units, CHEMICON International, Inc., Temecula, Calif.) in reaction buffer containing 100 mM NaCl, 50 mM HEPES, 10 mM DTT, 1 mM EDTA, 10% glycerol, 0.1% CHAPS, pH 7.4) at 37° C. for 2 hours or 4 hours, respectively. Cleavage reactions were terminated by addition of 2×SDS loading buffer. Full-length or caspase-3-treated recombinant GST-TDP43 (0.5 μg) was separated by 10% SDS-PAGE and stained with Coomassie blue.

HEK293 cells = assay: Inclusion formation and distribution of GFP-TDP-43 constructs, confocal microscopy; type: cell-based; details: for cells with compact cytoplasmic inclusions: HEK293, 48 hours after transfection; for cellular distribution / inclusion formation: HEK293, confocal fluorescence microscopy
Protocol: HEK293 cells, grown on glass coverslips, were transfected with 0.3 μg of expression vector (GFP, GFP-TDP-43, GFP-TDP-43-caspase-resistant, GFP-TDP-35, GFP-TDP-25, or GFP-TDP-ΔNR1) by using Lipofectamine 2000 (Invitrogen) according to the manufacturer's instructions then subjected to immunofluorescence analysis 48 hours later. To determine if the cytoplasmic inclusion were insoluble, some cells were treated with 0.2% Triton X-100 prior to fixation, in order to remove soluble protein. To determine if the formation of inclusion was aggresome-dependent, some cells were treated with 1 μM nocodazole (Sigma) for 24 hours after 6 hours of transfection. Finally, to examine if inclusions were ubiquitinated, cells were cotransfected with 0.3 μg of a TDP-43 construct and 0.5 μg HA-ubiquitin, then subjected to immunofluorescence analysis 72 hours later.
(§1) The cultured HEK293 and differentiated M17 cells were fixed with 4% paraformaldehyde in phosphate-buffered saline (PBS) at 4° C. for 15 minutes and permeabilized with PBS-0.5% Triton X-100 for 10 minutes. After blocking with 5% BSA for 1 hour at 37° C., the cells were incubated overnight at 4° C. with mouse monoclonal HA antibody (1:1000, Roche Applied Science), rabbit polyclonal activated caspase-3 antibody (1:250, Cell Signaling), rabbit polyclonal anti-pTDP-43 (which detects phosphorylated S409/S410; 1:1000, COSMO BIO CO., LTD), mouse monoclonal Flag antibody (1:1000, Sigma), rabbit polyclonal M2085 (1:1000), or rabbit polyclonal M2079 (1:1000). After washing, cells were incubated with the Alexa 568-conjugated goat anti-mouse IgG secondary antibody (1:1000, Molecular Probes) or anti-rabbit IgG secondary antibody (1:500, Molecular Probes) at 37° C. for 2 hours. Finally, Hoechst 33258 (1 μg/mL, Invitrogen) was used to stain the nuclei. Images were obtained on a Zeiss LSM 510 META confocal microscope.

Flag-TDP-43 = target: T2, Flag-TDP-43 (Homo sapiens, UniProt Q13148); assay: Co-immunoprecipitation with Flag-TDP-43; type: binding; details: HeLa cells, probing for GFP
T2 construct: the exon skipping activity in cells overexpressing full-length TDP-43 was examined; expressed in transfected cells; host or cells: HeLa cells
T2 sequence (Q13148 whole entry): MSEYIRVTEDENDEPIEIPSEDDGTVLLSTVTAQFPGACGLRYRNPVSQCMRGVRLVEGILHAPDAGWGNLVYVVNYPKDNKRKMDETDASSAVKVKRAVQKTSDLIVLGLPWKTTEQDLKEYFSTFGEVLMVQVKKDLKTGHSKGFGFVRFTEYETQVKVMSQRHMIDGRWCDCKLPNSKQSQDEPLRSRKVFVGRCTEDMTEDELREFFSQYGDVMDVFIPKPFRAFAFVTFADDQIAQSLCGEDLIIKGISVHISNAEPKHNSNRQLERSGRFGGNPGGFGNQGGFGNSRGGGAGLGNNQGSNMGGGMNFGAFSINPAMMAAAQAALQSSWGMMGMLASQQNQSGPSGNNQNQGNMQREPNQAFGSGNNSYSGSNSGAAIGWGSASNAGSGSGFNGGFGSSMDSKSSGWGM
Protocol: (§2) For co-immunoprecipitation studies, HeLa cells were transfected with 1 or 2 μg of each plasmid. Cells were harvested 48 hours later using Co-IP buffer (50 mM Tris-HCl, pH 7.4, 1 M NaCl, 1% Triton X-100, 5 mM EDTA) containing PMSF as well as protease and phosphatase inhibitors. The lysates were sonicated and centrifuged at 16,000 g for 20 minutes. The protein concentration of supernatants was determined by BCA assay (Thermo Scientific). Supernatant containing 500 μg of total protein was combined with Anti-Flag M2 agarose (Sigma) and incubated overnight at 4° C. with gentle shaking. The agarose was pelleted by centrifugation at 2,500 g for 5 minutes and washed with Co-IP buffer 6 times. Captured protein was eluted from the beads using loading buffer and resolved by SDS-PAGE for Western blot analysis.

hnRNPA2 = target: T3, hnRNPA2 (Homo sapiens, UniProt P22626); assay: Co-immunoprecipitation with Flag-tagged hnRNPA2; type: binding; details: HeLa cells, probing for GFP
T3 construct: expressed in transfected cells; host or cells: HeLa cells
T3 sequence (P22626 1-341 isoform P22626-2, species assumed): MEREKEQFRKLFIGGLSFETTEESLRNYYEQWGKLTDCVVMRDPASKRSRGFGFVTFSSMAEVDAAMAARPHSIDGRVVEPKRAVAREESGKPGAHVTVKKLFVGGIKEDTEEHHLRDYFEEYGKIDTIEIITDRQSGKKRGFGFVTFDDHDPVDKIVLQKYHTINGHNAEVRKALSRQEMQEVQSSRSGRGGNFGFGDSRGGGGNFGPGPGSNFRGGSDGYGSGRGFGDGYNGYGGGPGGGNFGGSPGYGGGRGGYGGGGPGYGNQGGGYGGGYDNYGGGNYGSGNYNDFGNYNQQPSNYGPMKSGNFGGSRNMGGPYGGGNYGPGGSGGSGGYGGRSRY
Protocol: as §2

[2] = tested on: differentiated M17 neuroblastoma cells; assay: Toxicity assay (LDH release, activated caspase-3 staining); type: cell-based
Protocol: M17 neuroblastoma cells, seeded at 2.5×10^3 cells per well in 24-well plates, were grown in Neurobasal A/B27 medium containing Glutamax (Invitrogen) and 10 μM retinoic acid (Sigma) to induce differentiation. Seven days later, cells were transfected with 0.2 μg of expression vector for 72 hours. The medium was collected, and a LDH assay (Promega) was used to measure LDH levels as an indicator of toxicity. Then, cells were fixed, and immunofluorescent staining was done using an antibody against activated caspase-3 (1:250; Cell signaling) and the nuclear marker, bisbenzimide (Hoechst 33258).
as §1

[3] = tested on: TDP-43 exon 9 skipping activity; assay: CFTR mini-gene splicing assay; type: cell-based
Protocol: The CFTR mini-gene splicing assay was conducted as described elsewhere (Pagani et al., J. Biol. Chem., 275(28):21041-21047 (2000) and Ayala et al., FEBS Lett., 580(5):1339-1344 (2006)). In brief, Hela cells were co-transfected with 1 μg of minigene construct and 1 μg of GFP-fusion protein expression vector. […] Then, 2 μg of total RNA was used to synthesize cDNA using the SuperScript III First-Strand Synthesis System (Invitrogen). For the PCR, 2 μL of cDNA was used in a 20 μL of reaction according to the manufacturer's protocol for Taq PCR Core Kit (Qiagen). The amplification conditions consisted of an initial denaturation step at 94° C. for 3 minutes, followed by 30 cycles of 94° C. for 30 seconds, 62° C. for 60 seconds, and 72° C. for 90 seconds.

[4] = medium collected 72 hours after transfection

T1 sequence (Q13148 whole entry): as the sequence (Q13148 whole entry) above

Row | Molecule | cells with compact cytoplasmic inclusions (HEK293 cells) | cellular distribution (HEK293 cells) | LDH release compared to cells transfected with full-length or caspase-resistant TDP-43 [2, 4] | inclusion formation (HEK293 cells) | also measured
1 | caspase-3: active human recombinant caspase-3 (CHEMICON) (protein) SGISLDNSYKMDYPEMGLCIIINNKNFHKSTGMTSRSGTDVDAANLRETFRNLKYEVRNKNDLTREEIVELMRDVSKEDHSKRSSFVCVLLSHGEEGIIFGTNGPVDLKKITNFFRGDRCRSLTGKPKLFIIQACRGTELDCGIETDSGVDDDMACHKIPVEADFLYAYSTAPGYYSWRNSKDGSWFIQSLCAMLKQYADKLEFMHILTRVNRKVATEFESFSFDATFHAKKQIPCIVSMLTKELYFYH | – | – | – | – | cleavage of recombinant GST-tagged TDP-43 [1]: three distinct fragments of approximately 42, 35, and 25 kD
2 | GFP-TDP-25: GFP-tagged 25 kDa (aa 220-414) C-terminal TDP-43 fragment (protein, left off: large carriers, GFP-tagged 25 kDa (aa 220-414) C-terminal TDP-43 fragment) VFIPKPFRAFAFVTFADDQIAQSLCGEDLIIKGISVHISNAEPKHNSNRQLERSGRFGGNPGGFGNQGGFGNSRGGGAGLGNNQGSNMGGGMNFGAFSINPAMMAAAQAALQSSWGMMGMLASQQNQSGPSGNNQNQGNMQREPNQAFGSGNNSYSGSNSGAAIGWGSASNAGSGSGFNGGFGSSMDSKSSGWGM | ~75 % of cells | cytoplasmic and nuclear distribution | significantly higher | – | nuclear localization of Flag-TDP-43 (HEK293 cells; HEK293 co-transfected with Flag-TDP-43): not appreciably altered; binding to Flag-TDP-43 (Flag-TDP-43): only weakly interacted; binding to hnRNPA2 (hnRNPA2): interact with hnRNPA2; inclusion-positive cells positive for fragmented nuclei and activated caspase-3 ([2]; quantitative analysis, Hoechst and activated caspase-3 staining): ~50%; CFTR exon 9 exclusion (endogenous TDP-43 background) ([3]; HeLa cells cotransfected with CFTR minigene, RT-PCR, compared to GFP): did not differ; exon skipping activity in cells overexpressing Flag-TDP-43 ([3]; cotransfected with CFTR mini-gene and Flag-TDP-43): did not reduce
3 | GFP-TDP-25S409A/S410A: mutant GFP-TDP-25 incapable of being phosphorylated at S409/S410 (protein, left off: large carriers, mutant GFP-TDP-25 incapable of being phosphorylated at S409/S410) VFIPKPFRAFAFVTFADDQIAQSLCGEDLIIKGISVHISNAEPKHNSNRQLERSGRFGGNPGGFGNQGGFGNSRGGGAGLGNNQGSNMGGGMNFGAFSINPAMMAAAQAALQSSWGMMGMLASQQNQSGPSGNNQNQGNMQREPNQAFGSGNNSYSGSNSGAAIGWGSASNAGSGSGFNGGFGSSMDSKAAGWGM | – | – | significantly higher | formed cytoplasmic inclusions | –
4 | GFP-TDP-ΔNR1: GFP-tagged C-terminal fragment (aa 193-414) lacking the N-terminus and the RRMI (protein, UniProt Q13148 193-414, looked up, fragment, GFP tag, GFP-tagged C-terminal fragment (aa 193-414) lacking the N-terminus and the RRMI) VFVGRCTEDMTEDELREFFSQYGDVMDVFIPKPFRAFAFVTFADDQIAQSLCGEDLIIKGISVHISNAEPKHNSNRQLERSGRFGGNPGGFGNQGGFGNSRGGGAGLGNNQGSNMGGGMNFGAFSINPAMMAAAQAALQSSWGMMGMLASQQNQSGPSGNNQNQGNMQREPNQAFGSGNNSYSGSNSGAAIGWGSASNAGSGSGFNGGFGSSMDSKSSGWGM | – | diffuse cytoplasmic and nuclear immunoreactivity | – | no detectable inclusions | LDH levels compared to cells expressing only GFP [2, 4]: no different
5 | GFP-TDP-35: GFP-tagged 35 kDa (aa 90-414) C-terminal TDP-43 fragment (protein, UniProt Q13148 90-414, looked up, fragment, GFP tag, GFP-tagged 35 kDa (aa 90-414) C-terminal TDP-43 fragment) ASSAVKVKRAVQKTSDLIVLGLPWKTTEQDLKEYFSTFGEVLMVQVKKDLKTGHSKGFGFVRFTEYETQVKVMSQRHMIDGRWCDCKLPNSKQSQDEPLRSRKVFVGRCTEDMTEDELREFFSQYGDVMDVFIPKPFRAFAFVTFADDQIAQSLCGEDLIIKGISVHISNAEPKHNSNRQLERSGRFGGNPGGFGNQGGFGNSRGGGAGLGNNQGSNMGGGMNFGAFSINPAMMAAAQAALQSSWGMMGMLASQQNQSGPSGNNQNQGNMQREPNQAFGSGNNSYSGSNSGAAIGWGSASNAGSGSGFNGGFGSSMDSKSSGWGM | ~25 % of cells | cytoplasmic and nuclear distribution | – | – | –
